This passage reports Kd, koff and kon results from patent CN112010973A (SHANDONG BOAN BIOTECHNOLOGY CO LTD, dated 2020).

The target of the experiment is T1, 4-1BB蛋白(义翘神州，10041-H08H) (human, UniProt Q07011 24-186).
T1 construct: bought reagent; also called 4-1BB-His蛋白; 4-1BB protein
The experiment can be described thus: SPR, BIAcore X100; antibody captured by anti-human IgG Fc on CM5, 4-1BB protein as analyte, 1:1 model. (Surface plasmon resonance follows binding to a sensor surface in real time, without labels.)

B1: Urelumab (antibody, human IgG4 S228P, kappa, V domains shown)
VH: QVQLQQWGAGLLKPSETLSLTCAVYGGSFSGYYWSWIRQSPEKGLEWIGEINHGGYVTYNPSLESRVTISVDTSKNQFSLKLSSVTAADTAVYYCARDYGPGNYDWYFDLWGRGTLVTVSS
VL: EIVLTQSPATLSLSPGERATLSCRASQSVSSYLAWYQQKPGQAPRLLIYDASNRATGIPARFSGSGSGTDFTLTISSLEPEDFAVYYCQQRSNWPPALTFGGGTKVEIKR
notes: Second positive control antibody, expressed in HEK293 in the same way as Utomilumab
Regarding B1, the Kd turned out to be 4.87 nM, the koff came out at 0.00251 s⁻¹ and the kon came out at 516000 M⁻¹ s⁻¹.

As usually defined, the Kd is the concentration at which binding is half-saturated. A higher Kd goes with weaker binding. A word on the koff: it is the rate constant with which the complex falls apart. The kon is a measure of how fast the partners come together. Low values mean slow association, high ones fast association.
